Data on five substances can be found in PMC5093203 (Pharmaceutical Research, 2016).

Data set [1] in a line: Hydrodynamic size by dynamic light scattering (DLS). In kind it is physicochemical. The settings on record: 25 ± 1°C, 90° scattering angle, 633 nm, ~85 μM in 1x PBS, viscosity-corrected.
Experimental: Weighed-samples of freeze-dried powder were dissolved in 1x phosphate-buffered saline (PBS) to a final concentration of ~85 μM. Concentrated protein stock solutions were diluted ~20-fold in 1 × PBS buffer to achieve a final concentration of ~85 μM. Protein concentrations (OD276 (1 mg/ml) = 1 for a 1 cm cuvette) were measured by NanoDrop (Thermo Fisher Scientific, Waltham, MA, USA). All samples were filtered through Whatman Anatop10™ low protein-binding filters (Whatman, Kent, UK) before the DLS experiments. Solution viscosity was measured by an m-VROC® (RheoSense, Inc., San Ramon, CA, USA) viscometer and light scattering data were corrected using the measured viscosity.
DLS measurements were carried out at 25 ± 1°C at a 90° scattering angle using an ALV/CGS-3 Compact Goniometer system with ALV/LSE-5003 Light Scattering Electronics and Multiple Tau Digital Correlator (ALV®-GmbH, Langen, Germany). The laser operating wavelength was 633 nm. The apparent hydrodynamic radius Rh was estimated via the Stoke-Einstein equation (Eq. 1):1 Rh=kBT/6πηD where, Rh is the apparent hydrodynamic radius (m), kB is the Boltzmann constant (kg^●m^2/s^2●K), T is the absolute temperature (K), η is the viscosity (kg/m•s), and D is the diffusion constant (m^2/s). DH is the apparent hydrodynamic diameter in nm or 2 Rhinnm . The viscosity measurement was performed with a solution concentration of 0.49 ± 0.02 mg/mL at 25°C. Viscosity mean and SD was determined from n ≥8 and reported as cP, (g/cm•s) = 10^−3 × Pa•s (kg/m•s)
The conditions of data set [2]: LDC sheep, SC commercially formulated human insulin; cited from earlier work.
Details of data set [3]: method as in 2 sources, ref 28 = [28]; PMID 22353017; doi:10.1021/mp200470c; 28. Gokarn YR McLean M Laue TM Effect of PEGylation on protein hydrodynamics Mol Pharm 2012 9 4 762 73 10.1021/mp200470c 22353017 ||| ref 28, 34, 35 = [28]; PMID 22353017; doi:10.1021/mp200470c; 28. Gokarn YR McLean M Laue TM Effect of PEGylation on protein hydrodynamics Mol Pharm 2012 9 4 762 73 10.1021/mp200470c 22353017 || [34]; PMID 23499718; doi:10.1016/j.jconrel.2013.03.006; 34. Kaminskas LM Ascher DB McLeod VM Herold MJ Le CP Sloan EK PEGylation of interferon alpha2 improves lymphatic exposure after subcutaneous and intravenous administration and improves antitumour effi || [35]; PMID 19686787; doi:10.1016/j.jconrel.2009.08.005; 35. Kaminskas LM Kota J McLeod VM Kelly BD Karellas P Porter CJ PEGylation of polylysine dendrimers improves absorption and lymphatic targeting following SC administration in rats J Controlled Release. The settings on record: 14.3-kDa egg white lysozyme with vs without 20-kDa PEG; cited from earlier work.

Details of data set [4]: species or system Sprague Dawley rats. Conditions: rat, in vivo, iv.
Experimental: The 5/6-nephrectomized and sham male Sprague Dawley rats were obtained from Taconic Farms (Albany, NY, USA). Animals were housed two per cage in polycarbonate cages with filter tops. Animals were maintained on a 12/12 h light/dark cycle (lights on at 6:00 AM). All animals received water and LabDiet 5001 (PMI Nutrition International, Brentwood, MO, USA) ad libitum. Animals were monitored daily during the 5-week time frame that allowed progression of the disease state. Seven weeks post-surgery, blood was collected by tail clip into serum tubes for measurement of serum creatinine and blood urea nitrogen. Three days later, urine was collected for 24 h from animals housed in metabolism cages. […]
BIL concentrations in serum and lymph were determined by ELISA performed by the bioanalytical testing facility Charles River Laboratories Preclinical Services (Senneville, Quebec, Canada) as described previously for rat serum ([27]). The assay quantitation range for rat serum was 20 pM to 500 pM. […] Samples above the upper limit of quantitation were diluted and reanalyzed to gain results within the calibrated range. […]
Noncompartmental pharmacokinetic parameters for the rat study were determined using WinNonlin® professional v5.3 (Pharsight, St. Louis, MO, USA) and for the sheep study using Watson^TM (version 7.4.2 PRD872, Thermo Fisher Scientific, Inc). […] Descriptive statistics were calculated as appropriate. […]
Data set [5] in a line: Serum pharmacokinetics in non-LDC sheep (IV, SC). In kind it is in vivo, merino sheep. As to the method:
(§1) Surgery was performed under aseptic conditions.
(§2) Blood samples (3 mL) were collected into 4 mL serum collection tubes (Becton, Dickinson and Company, Scoresby, Victoria, Australia) at the following time points (hour): predose, […] (1 min, IV only), 0.083 (5 min, IV only), 0.25 (15 min, IV only), 0.5, 1, 2, 3 (SC LDC only), 4, 6, 8, 10, 12 (all IV and SC LDC), 18 (SC non-LDC only), 30 (all SC), 39 (SC non-LDC only), 48 (all SC), 54 (all SC), 72 (all SC), 96 (SC LDC only), and 120 (SC LDC only) hours postdose. The jugular cannula was flushed with heparinized saline (50 IU/mL) between samples to maintain patency. Blood samples were allowed to stand at room temperature for up to 1 h and were then centrifuged for 10 min 6000 rpm to separate serum.
(§3) Noncompartmental pharmacokinetic parameters for the rat study were determined using WinNonlin® professional v5.3 (Pharsight, St. Louis, MO, USA) and for the sheep study using Watson^TM (version 7.4.2 PRD872, Thermo Fisher Scientific, Inc). Concentrations below the lower limit of quantitation were assigned a value of zero and the zero result used in the calculation of means and standard deviation using MicroSoft® Office® Excel® 2010 (version 14.0.; Redmond, WA). Descriptive statistics were calculated as appropriate. SigmaPlot® v11 (Systsat Software, IC., San Jose, CA, USA) and Excel® were used for the graphics.

Data set [6] in a line: Serum pharmacokinetics in lymph duct cannulated (LDC) sheep (IV, SC). On the set-up: species or system merino sheep. The settings on record: in vivo. As for the experimental part:
as §1, §2, §3

The conditions of data set [7]: in vivo, sc.
Experimental: Using a parallel group design, BIL was administered by single dose SC injection to non-LDC control sheep and to LDC sheep with a surgically placed popliteal lymph duct cannula (Table I). Blood was collected in each group, and lymph was continuously collected in the LDC sheep. BIL was also administered by bolus IV injection to a separate group of non-LDC animals for determining bioavailability and PK linearity.
Surgery was performed under aseptic conditions. Castrated male merino sheep (H.M. Barty & Sons Merino Stud, Robinvale, Victoria, Australia) weighing 31–48 kg were used. […]
In LDC sheep, lymph samples were collected in pre-weighed tubes containing 10 μL/mL of 10% EDTA at the following time points: Predose, 0–1, 1–2, 2–3, 3–4, 4–5, 5–6, 6–7, 7–8, 8–9, 9–10, 10–11, 11–12, 12–24, 24–36, 36–48, 48–60, 60–72, 72–84, 84–96 h post dose. At each time interval, the amount of lymph collected was determined gravimetrically. […]
BIL concentrations in serum and lymph were determined by ELISA performed by the bioanalytical testing facility Charles River Laboratories Preclinical Services (Senneville, Quebec, Canada) as described previously for rat serum ([27]). The assay quantitation range for rat serum was 20 pM to 500 pM. Assay quantitation range for sheep serum was from 20 pM to 500 pM. […] The quantitation range for sheep lymph was also 20 to 500 pM. […]
For data set [8] the following is noted: rat, in vivo, sc; cited from earlier work.
For data set [9] the following is noted: in vivo; cited from earlier work.
Setting [10] is: non-LDC sheep, SC 120 nmol, serum, mean ± SD, N = 5.

Marks after values point to notes of the source that are not given here.

With insulin, in data set [1], the “apparent hydrodynamic diameter (DH)” value came to 2.1 nm. Also, the “% of the insulin dose recovered in the peripheral lymph” value in [2] is 17.3%.
Take “20-kDa PEG egg white lysozyme: 14.3-kDa egg white lysozyme with addition of 20-kDa PEG”: the hydrodynamic diameter in data set [3] is 9.6 nm.
In the case of leptin, the results for the “apparent hydrodynamic diameter (DH)” value in data set [1] and in data set [1] (listed as Leptin) were 4.3 nm and 4.2 nm, respectively.
On to egg white lysozyme, for which, in data set [3], the hydrodynamic diameter is 4.0 nm.
As for insulin peglispro [BIL], the “apparent hydrodynamic diameter (DH)” value in [1] amounted to 7.6 nm. For the same substance, the “clearance in sham versus 5/6-nephrectomized rats (in words)” value in [4] is “similar”. Further, the AUC0-t in [5] (in vivo, iv, 20 nmol) worked out at 0.0125667 ± 0.0018009 µM·h; in [5] (in vivo, iv, 40 nmol), 0.040075 ± 0.0124583 µM·h; in data set [5] (in vivo, iv, 120 nmol), 0.1116667 ± 0.0150444 µM·h; in data set [5] (in vivo, sc, 120 nmol), 0.14296 ± 0.0838207 µM·h; in [6] (iv, 120 nmol), 0.1395 ± 0.0606932 µM·h; in data set [6] (sc, 120 nmol) it was 0.0025945 ± 0.0025636 µM·h. Further, the C0 in data set [5] (in vivo, iv, 20 nmol) amounted to 11.133 ± 1.234 nM; in [5] (in vivo, iv, 40 nmol), 27.9 ± 6.124 nM; in [5] (in vivo, iv, 120 nmol) it was 60.4 ± 1.039 nM; in data set [6] (iv, 120 nmol), 70.175 ± 13.6001 nM. In addition, the CL turned out to be 0.70 ± 0.09 mL/min/kg in data set [5] (in vivo, iv, 20 nmol); 0.53 ± 0.21 mL/min/kg in [5] (in vivo, iv, 40 nmol); 0.47 ± 0.06 mL/min/kg in data set [5] (in vivo, iv, 120 nmol); 0.37 ± 0.12 mL/min/kg in data set [6] (iv, 120 nmol). Besides, the T1/2 in data set [5] (in vivo, iv, 20 nmol) was 1.6 ± 0.1 h; in data set [5] (in vivo, iv, 40 nmol) it was 2.8 ± 0.3 h; in data set [5] (in vivo, iv, 120 nmol) it was 3.3 ± 1.2 h; in data set [5] (setting [10]), 7.5 ± 5.1 h; in [6] (iv, 120 nmol), 5.7 ± 2.1 h; in [6] (sc, 120 nmol), 4.6 ± 4.0^a hours. For the same substance, the Vdss in [5] (in vivo, iv, 20 nmol) turned out to be 0.05 ± 0.01 L/kg; in data set [5] (in vivo, iv, 40 nmol), 0.04 ± 0.01 L/kg; in [5] (in vivo, iv, 120 nmol), 0.07 ± 0.04 L/kg; in data set [6] (iv, 120 nmol) it was 0.04 ± 0.01 L/kg. Also, the “% bioavailability” value in data set [5] (in vivo, sc) is reported as 123%; in [6] (sc), less than 2%; in data set [6] (sc, 120 nmol), 1.7%. Also, the Tmax in [5] (setting [10]) is 2.4 ± 0.9 h; in data set [6] (sc, 120 nmol), 2.3 ± 1.0 h. Besides, the Cmax in data set [6] (sc, 120 nmol) stood at 0.4153 ± 0.384 nM. Further, the “% of dose recovered in the peripheral lymph” value in data set [7] was 88%. The “% of dose excreted unchanged in urine” value in data set [8] is 2.5%. The “PK properties in renal insufficiency (in words)” value in data set [9] is recorded as “unaffected”.
